This passage reports EC50 and IC50 results from patent US20260028402A1 (published 2026).

Test [1] concerns the target CynoCD100-HEK293 (cynomolgus monkey). Nature of the test: FACS.
The target of test [2] is T1, full-length human CD100 protein HuCD100 on cells (human, UniProt Q92854 22-862). Nature of the test: FACS. On the technique in general: A flow cytometer gives signals particle by particle.
For test [3], the target named is T2, full-length mouse CD100 protein MusCD100 on cells (mouse, UniProt O09126 24-861).
T2 chain: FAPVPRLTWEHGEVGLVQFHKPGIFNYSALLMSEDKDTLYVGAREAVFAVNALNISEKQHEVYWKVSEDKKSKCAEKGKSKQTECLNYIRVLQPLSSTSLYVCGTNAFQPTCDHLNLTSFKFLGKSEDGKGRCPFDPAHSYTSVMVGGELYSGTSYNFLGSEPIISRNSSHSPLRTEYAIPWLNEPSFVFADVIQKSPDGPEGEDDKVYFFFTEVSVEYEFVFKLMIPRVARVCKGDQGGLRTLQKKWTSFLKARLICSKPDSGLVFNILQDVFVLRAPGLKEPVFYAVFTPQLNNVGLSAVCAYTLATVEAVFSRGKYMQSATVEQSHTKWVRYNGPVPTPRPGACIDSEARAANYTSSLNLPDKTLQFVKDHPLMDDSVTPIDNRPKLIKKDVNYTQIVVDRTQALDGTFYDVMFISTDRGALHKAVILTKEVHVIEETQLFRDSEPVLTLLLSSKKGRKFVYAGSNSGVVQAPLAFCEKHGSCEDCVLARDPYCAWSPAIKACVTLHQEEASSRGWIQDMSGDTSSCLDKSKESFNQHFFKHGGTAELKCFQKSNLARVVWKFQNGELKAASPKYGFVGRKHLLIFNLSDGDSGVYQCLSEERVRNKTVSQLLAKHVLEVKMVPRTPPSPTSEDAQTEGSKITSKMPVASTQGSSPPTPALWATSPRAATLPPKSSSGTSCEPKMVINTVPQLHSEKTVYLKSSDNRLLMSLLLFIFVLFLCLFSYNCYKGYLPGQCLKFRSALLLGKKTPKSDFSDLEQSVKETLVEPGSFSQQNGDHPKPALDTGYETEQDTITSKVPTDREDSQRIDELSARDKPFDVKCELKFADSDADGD
Nature of the test: FACS.

Test [4] deals with CynoCD100-HEK293 (cynomolgus monkey). Nature of the test: FACS. The source holds these as a separate data set.
Test [5] concerns the target T2, full-length mouse CD100 protein …. Nature of the test: FACS.
The target of test [6] is T1, full-length human CD100 protein HuCD100 …. Nature of the test: FACS. This is another data set of the same source.
Test [7] addresses CynoCD100-His (cynomolgus monkey). Nature of the test: ELISA; FIG. 5F.
Test [8] has as its target T3, HuCD100-His (human, UniProt Q92854 22-734). Nature of the test: ELISA; FIG. 5D. (An ELISA detects its analyte on a solid surface through an enzyme-linked reagent.)
Test [9] deals with T4, MusCD100-His (mouse, UniProt O09126 24-733).
T4 chain: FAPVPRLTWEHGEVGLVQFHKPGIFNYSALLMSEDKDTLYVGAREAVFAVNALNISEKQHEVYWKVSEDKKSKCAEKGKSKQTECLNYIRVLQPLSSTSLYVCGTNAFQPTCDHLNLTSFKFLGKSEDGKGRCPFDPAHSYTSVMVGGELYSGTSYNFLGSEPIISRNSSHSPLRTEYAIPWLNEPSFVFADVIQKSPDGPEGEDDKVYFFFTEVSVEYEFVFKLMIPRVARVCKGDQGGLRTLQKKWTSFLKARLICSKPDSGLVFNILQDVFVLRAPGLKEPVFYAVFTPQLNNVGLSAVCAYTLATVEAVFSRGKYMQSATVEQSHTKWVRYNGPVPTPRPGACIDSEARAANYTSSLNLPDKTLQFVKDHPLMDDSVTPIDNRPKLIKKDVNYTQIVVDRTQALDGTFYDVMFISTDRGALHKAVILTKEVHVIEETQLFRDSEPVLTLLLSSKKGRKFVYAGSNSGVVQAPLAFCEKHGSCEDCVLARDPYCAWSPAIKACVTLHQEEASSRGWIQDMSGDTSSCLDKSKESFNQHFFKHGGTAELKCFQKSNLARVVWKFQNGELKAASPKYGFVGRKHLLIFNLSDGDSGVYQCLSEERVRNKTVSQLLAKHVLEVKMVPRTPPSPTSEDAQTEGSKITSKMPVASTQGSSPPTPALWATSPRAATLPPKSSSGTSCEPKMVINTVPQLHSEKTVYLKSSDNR
Nature of the test: ELISA; FIG. 5E.

Test [10] has as its target T1, full-length human CD100 protein HuCD100 …. Nature of the test: FACS; HuPBMC cells.
Test [11] has the same target. Nature of the test: FACS binding; FIG. 11D.
The target in test [12] is T5, HuCD100-Fc (in-house prepared) (human, UniProt Q92854 22-734, biotinylated in the Plexin binding and blocking assays (sites not given)). Nature of the test: FACS blocking; HuPlexin-B1-HEK293, FIG. 12B.
For test [13], the target named is T5, HuCD100-Fc (in-house prepared). Nature of the test: FACS blocking; HuPlexin-B2-HEK293, FIG. 12D.
In test [14] the target is T6, MusCD100-Fc (mouse, UniProt O09126 24-733, biotinylated in the Plexin binding and blocking assays (sites not given)).
T6 chain: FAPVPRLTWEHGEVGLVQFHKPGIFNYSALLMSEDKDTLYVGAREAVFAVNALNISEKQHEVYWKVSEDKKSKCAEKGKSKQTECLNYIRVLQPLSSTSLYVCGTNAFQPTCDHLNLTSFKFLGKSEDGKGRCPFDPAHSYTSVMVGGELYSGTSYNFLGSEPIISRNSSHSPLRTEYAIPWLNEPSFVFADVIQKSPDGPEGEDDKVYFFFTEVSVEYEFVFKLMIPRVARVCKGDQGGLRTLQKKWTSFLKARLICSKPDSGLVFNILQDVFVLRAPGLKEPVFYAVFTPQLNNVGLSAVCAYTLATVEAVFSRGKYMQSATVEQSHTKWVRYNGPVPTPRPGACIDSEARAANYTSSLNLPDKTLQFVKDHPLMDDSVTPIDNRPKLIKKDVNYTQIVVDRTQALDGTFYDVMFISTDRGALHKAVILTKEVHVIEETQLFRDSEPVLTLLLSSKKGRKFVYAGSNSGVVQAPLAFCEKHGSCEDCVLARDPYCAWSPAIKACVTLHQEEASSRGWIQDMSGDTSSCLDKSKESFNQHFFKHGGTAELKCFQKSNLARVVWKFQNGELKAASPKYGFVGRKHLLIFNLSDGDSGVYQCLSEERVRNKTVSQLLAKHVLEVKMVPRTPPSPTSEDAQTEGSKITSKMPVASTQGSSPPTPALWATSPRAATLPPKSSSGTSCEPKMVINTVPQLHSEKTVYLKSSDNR
Nature of the test: FACS blocking; MusPlexin-B1-HEK293, FIG. 12F.

The target of test [15] is T5, HuCD100-Fc (in-house prepared). Nature of the test: FACS blocking; blocking of binding to HuPlexin-B1-HEK293.
The target is the same in test [16]. Nature of the test: FACS blocking; FIG. 8B, blocking of binding to HuPlexin-B2-HEK293.
The target of test [17] is T3, HuCD100-His. Nature of the test: ELISA.
Test [18] deals with T4, MusCD100-His. Nature of the test: ELISA.
The target in test [19] is CynoCD100-His (cynomolgus monkey). Nature of the test: ELISA.
The target in test [20] is CynoCD100-HEK293 (cynomolgus monkey). Nature of the test: FACS. This is another data set of the same source.
Test [21] addresses CynoCD100-His (cynomolgus monkey). Nature of the test: ELISA; FIG. 5C.
The target in test [22] is T7, cynomolgus monkey PD-L1 on cells (cynomolgus monkey, UniProt G7PSE7 19-290). Nature of the test: FACS binding.
Test [23] addresses T7, cynomolgus monkey PD-L1 on cells. Nature of the test: FACS binding. The source holds these as a separate data set.

Where two headings read alike, the source gives them in different places.

T7 sequence (G7PSE7 entry or part of it): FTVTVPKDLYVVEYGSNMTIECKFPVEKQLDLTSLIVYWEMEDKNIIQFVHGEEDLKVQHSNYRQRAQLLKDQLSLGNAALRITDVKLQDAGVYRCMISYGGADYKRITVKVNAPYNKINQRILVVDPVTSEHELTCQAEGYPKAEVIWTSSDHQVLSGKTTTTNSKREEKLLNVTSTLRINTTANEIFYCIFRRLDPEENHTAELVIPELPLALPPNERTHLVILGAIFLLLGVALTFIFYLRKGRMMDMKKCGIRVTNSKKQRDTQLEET

B1: A31 (antibody, V domains shown)
VH: EVQLVESGGGLVQPEGSLRLSCAASGFPLDYYAIGWFRQAPGKEREGVSCIISGGSTKYSASVKGRFTISRDSANNTVYLQMNSLKPEDTAVYFCAVSWSCDLFPRDTYGWDAWGQGTLVTVSS
Broadly, the EC50 is the midpoint of the concentration-response curve. One may read the IC50 as the concentration needed to halve the response being measured. In the case of B1, the EC50 in test [1] turned out to be 0.579 nM; in [2], 0.374 nM; in [3] it was 0.945 nM; in test [4], 0.327 nM; in test [5], 1.15 nM; in test [6], 0.467 nM. Besides, the EC50 in test [7] worked out at 0.0512 nM; in test [8] it was 0.0452 nM; in test [9], 59.4 nM; in [10], 0.754 nM; in test [11], 0.367 nM. Moreover, the IC50 was 0.837 nM in test [12]; around 4.24 nM in test [13]; 9.86 nM in [14]; 1.06 nM in test [15]; 2.48 nM in test [16].

B2: A31-VHH1 (antibody, V domains shown)
VH: EVQLVESGGGLVQPEGSLRLSCAASGFPLDYYAIGWFRQAPGKEREGVSCIISGGSTKYSASVKGRFTISRDSAKNTVYLQMNSLRAEDTAVYFCAVSWSCDLFPRDTYGWDAWGQGTLVTVSS
Take B2: the EC50 in [5] came out at 1.78 nM; in [6], 0.504 nM; in test [17], 0.202 nM; in test [18], 0.23 nM; in test [19], 0.131 nM; in test [10], 0.356 nM. The response in test [11] was half-maximal at 0.413 nM (EC50). For the same molecule, the IC50 was found to be 0.8 nM in test [12], 5.43 nM in test [13] and 4.84 nM in test [14].

B3: A9-VHH2 (antibody, V domains shown)
VH: QVQLVESGGGLVQAGGSLRLSCAASGFSLDYYAIGWFRQAPGKEREEVSCISSSGGSTDYADSVKGRFTISRAYAKVYLQMNSLRAEDTAVYYCAAGVSGSVCPPLIGAYWGQGTLVTVSS
As to B3, the EC50 came to 0.516 nM in test [20] and 0.743 nM in test [19].

B4: A9 (antibody, V domains shown)
VH: QVQLVESGGGLVQAGGSLRLSCAASGFSLDYYAIGWFRQAPGKEREEVSCISSSGGSTDYADSVKGRFTISRAYAKVYLQMNSLKPEDTAVYYCAAGVSGSVCPPLIGAYWGQGTQVTVSS
Take B4: the concentration giving a half-maximal response (EC50) in test [1] came to 0.776 nM; in [20], 0.47 nM; in test [21] it was 0.178 nM.

B5: A9-VHH1 (antibody, V domains shown)
VH: QVQLVESGGGLVQPGGSLRLSCAASGFSLDYYAIGWFRQAPGKEREEVSCISSSGGSTDYADSVKGRFTISRAYAKVYLQMNSLKPEDTAVYYCAAGVSGSVCPPLIGAYWGQGTLVTVSS
For B5, the EC50 came out at 0.551 nM in test [20] and 0.169 nM in test [19].

B6: A9-VHH3 (antibody, V domains shown)
VH: QVQLVESGGGLVQAGGSLRLSCAASGFSLDYYAIGWFRQAPGKGLEEVSCISSSGGSTDYADSVKGRFTISRAYAKVYLQMNSLRAEDTAVYYCAAGVSGSVCPPLIGAYWGQGTLVTVSS
B6: the 50% effective concentration (EC50) in test [20] was determined as 0.835 nM; in [19] it was 1.31 nM.

B7: m18 (antibody, V domains shown)
VH: EVQLVESGGGLVQPGGSLRLSCAASRTDSNIHGMHWYRQAPGKGREWVGMIFIDGNTIVTDSVKGRFTISRDNAKNTLYLQMNTLRAEDTAVYYCAADSRGYGRAWGQGTTVTVSS
In the case of B7, the EC50 in test [22] worked out at 0.242 µg/mL.

B8: Avelumab (antibody, V domains shown)
VH: EVQLLESGGGLVQPGGSLRLSCAASGFTFSSYIMMWVRQAPGKGLEWVSSIYPSGGITFYADTVKGRFTISRDNSKNTLYLQMNSLRAEDTAVYYCARIKLGTVTTVDYWGQGTLVTVSS
VL: QSALTQPASVSGSPGQSITISCTGTSSDVGGYNYVSWYQQHPGKAPKLMIYDVSNRPSGVSNRFSGSKSGNTASLTISGLQAEDEADYYCSSYTSSSTRVFGTGTKVTVLG
For B8, the EC50 in test [23] came to 0.988 µg/mL.
